This note sets out measurements from publication PMC10819704, “Regulatory Role of GgaR (YegW) for Glycogen Accumulation in Escherichia coli K-12” (Microorganisms, 2024).

One data set deals with GgaR (YegW) (Escherichia coli, UniProt P0ACM5). Briefly: gel shift assay: loss of GgaR-DNA complex. It is filed as binding. The conditions noted are these: 2.0 pmol GgaR, 0.5 pmol fbaB/yegT spacer DNA probe, 10-100 uM ADPG, 37 °C; effector (inducer) releasing the repressor from DNA. A general note: Mobility shift assays separate free from complexed probe on a gel.
Data set [1] deals with T1, GgaR (YegW) (Escherichia coli K-12 W3110) (UniProt P0ACM5).
T1 sequence: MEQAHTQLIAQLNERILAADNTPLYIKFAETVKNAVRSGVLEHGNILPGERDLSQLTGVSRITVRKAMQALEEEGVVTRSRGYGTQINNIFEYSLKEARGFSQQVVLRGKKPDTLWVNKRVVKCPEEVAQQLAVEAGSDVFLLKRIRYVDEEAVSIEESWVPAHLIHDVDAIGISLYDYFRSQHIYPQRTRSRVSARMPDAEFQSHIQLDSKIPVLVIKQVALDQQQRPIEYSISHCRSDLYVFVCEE
Briefly: EMSA. The note with it: EMSA: binding buffer composition and pH not given; 37 C, 30 min (+30 min with effector); 0.5 pmol probe; 5% PAGE, GelRed stain.

For the compound `Nc1ncnc2c1ncn2[C@@H]1O[C@H](COP(=O)(O)OP(=O)(O)O[C@H]2O[C@H](CO)[C@@H](O)[C@H](O)[C@H]2O)[C@@H](O)[C@H]1O` [ADPG, ADP-glucose], the “gel shift assay: loss of GgaR-DNA complex” value on GgaR (YegW) is “After adding increasing concentrations of ADPG, the complex of GgaR and the fbaB/yegT spacer”.

Take “AAATGGATATTAAAGTCATGCTCGGCCTGGATGCGCTGATCCTGCTGCGCGATAAAAACTTCCTCGTCTTTTTCTTCTGTTCATTCCTGTTTGCGATGCCACTAGCGTTCTATTACATCTTTGCCAACGGTTATCTGACCGAAGTTGGCATGAAAAACGCCACCGGCTGGATGACGCTCGGCCAGTTCTCTGAAATCTTCTTTATGCTGGCATTGCCGTTTTTCACTAAACGCTTTGGTATCAAAAAGGTATTATTGCTTGGTCTGGTCACCGCTGCGATCCGCTATGGCTTCTTTAT (double strand) [probe-5]”: the binding entry in data set [1] was “binds more weakly”.

For “AATCATAATCCTGGTCGTTACGGGCGAGTTTTTCCATCTTTTGGATGTTTTTTCAGCGTTTTCTGTTGGCTCGATTCATCAGAAAAAATGTTAGCGCGGTCAAGTTTTCACCGCAAAGGTATTTAAAAGGTATTATTAAGTGGTATTGTCATCGCGTACCTTACATTACCTGTCATGAAGGAATTAAAAGATGAAAACAACAGCAAAGCTGTCGTTCATGATGTTTGTTGAATGGTTTATC (double strand) [probe-2]”, in data set [1], the binding result is given as “binds”.

Turning to “TTTCTGATGAATCGAGCCAACAGAAAACGCTGAAAAAACATCCAAAAGATGGAAAAACTCGCCCGTAACGACCAGGATTATGATTGCCCGCAAAAGGCGGGCCAGGACAATCCATAGCCGATATCCAATCGGAATTTACGGGAGCATAGTAATGACAGATATTGCGCAGTTGCTTGGCAAAGACGCCGACAACCTTTTACAGCACCGTTGTATGACAATTCCTTCTGACCAGCTTTATCTCCCCGGACATGACTACGTAGACCGCGTAATGATTG (double strand) [probe-1]”, the binding entry in data set [1] is given as “no binding”.
